The nanobody polyreactivity screen of Harvey et al. (2022)

experiment: yeast display, Sf9 membrane polyspecificity reagent, FACS + sequencing; frameworks hold sequencing errors
In short: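 Using colony PCR, genes from sorted yeast display clones were amplified, then sequenced on MiSeq at 2 × 250 and filtered by CDR length. The clones had been stained with 10% biotinylated, detergent-solubilized Sf9 membrane reagent for 1 hour at 4 °C and sorted by FACS into low and high (top ~1%) gates on anti-HA and streptavidin fluorescence. Polyreactivity labels come from the gate of origin.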

| Sequence | polyreactivity (PSR sort gate) |
| --- | --- |
| QVQLVESGGGLVQAGGSLRLSCAASGLTLYRYVMGWYRQAPGKERELVADISGRGTSTYYADSVKGRFTISRDNAKNTVYLQMNRLKPAATAVYYCNAEYTKTGALVIPYTYYYAEDYWGQGTQVTVSS | low polyreactivity |
| QVQLVESGGGLVQAGGSLRLSCAASGLTLYYNAMGWYRQAPGKERELVAAMSGSGGNTYYADSVKGRFTISRDNAKNTVYLQMNSLKPEDTAVYYCNAYTHSRNPERREYYWGQGTQVTVSS | high polyreactivity |
| QVQLVESGGGLVQAGGSLRLSCAASGLTSVRYAMGWYRQAPGKERELVARISTGGSTYYADSVKGRFTISRDNAKNTVYLQMNSLKPEDTAVYYCNKGYARRYASGYDYWGQGTQVTVSS | high polyreactivity |
| QVQLVESGGGLVQAGGSLRLSCAASGLTVKWNAMGWYREAPGKETELFASITSGGSTNYADSVKGRFTISRDNAKNTVYLQMNSLKPEDTAFYYCNAEYYLFKRPYSYYYWGQGTQVTVSS | low polyreactivity |
| QVQLVESGGGLVQAGGSLRLSCAASGMFGLNAMGWYRQAPGKERELVAAIRWTGSSTYYADSVKGRFTISRDNAKNTVYLQMNSLKPEDTADYYCAADFYVWGIWMEYWGQGTQVTVSS | high polyreactivity |
| QVQLVESGGGLVQAGGSLRLSCAASGMIFRRYAMGWYRQAPGKERELVAAITSGGSTYYADSVKGRFTISRDNAKKTVYLQMNSLKAEDTAVYSCAAVFYYATYSKKFEYWGQGTQVTVSS | high polyreactivity |
| QVQLVESGGGLVQAGGSLRLSCAASGMTFTYYAMGWYRQAPGKERELVAAISWSDGSTYYADSVKGRFTISRDNAKNTVYLQMNSLKPEDTAVYYCAARYGGAISQAKYYYWGQGTQVTVSS | high polyreactivity |
| QVQLVESGGGLVQAGGSLRLSCAASGNGLGWYRQAPGKERELVAAITRRGGSTYYADSVKGRFTISRDNAKNTVYLQMNSLKPEDTAVYYCAADNPSYNLWYGYWGQGTQVTVSS | low polyreactivity |
| QVQLVESGGGLVQAGGSLRLSCAASGNHLRSLCLGWYRQAPGKERELVAAITSSGASTYYADSVKGRFTISRDNAKNTVYLQMNSLKPEDTAVYYCAAYLFRRYDYWGQGTQVTVSS | low polyreactivity |
| QVQLVESGGGLVQAGGSLRLSCAASGNICRINGMGWYRQAPGKERELVASITRSGSTYYADSVKGRFTISRDNAKNTVYLQMNSLKPEDTAVYYCNADGWYWQAQGYDYWGQGTQVTVSS | low polyreactivity |
| QVQLVESGGGLVQAGGSLRLSCAASGNIFAINAMGWYRQPPGKERELVAAISSRGGSTTYADSVKGRFTISRDIAKNTVYLQMNSLKPEDTAVYDCAADFVRDRFFRYDYWGQGTQVTVSS | high polyreactivity |
| QVQLVESGGGLVQAGGSLRLSCAASGNIFARYAMGWYRQATGKERDLVSAISRSGGSTYYADSVKGRFTISRDNAKNSVYLQMKCLKPEDTAVYYCNAKSYGVLYWFAYDYWGQGTQVTVSS | high polyreactivity |
| QVQLVESGGGLVQAGGSLRLSCAASGNIFATYAMGWYRQAPGKERELVAAIRSGGNTNYADSVKGRFTISRDNAKNTVYLQMNSLKPEDTAVYYCNAYKIFYGYIRYNYWGQGTQVTVSS | high polyreactivity |
| QVQLVESGGGLVQAGGSLRLSCAASGNIFAWYAMGGYRQAPGKERELVADISSRGGSTSYADSVKGRFTISRDNAKKTVYLQMNSLKPEDTAVYYCAASYYYPFEYYYWGQGTQVTVSS | low polyreactivity |
| QVQLVESGGGLVQAGGSLRLSCAASGNIFAWYAMGWYRQAPGKERELDADISSRGGSTYYADSVKGRFTISRDNAKNTVYLQMNSLKPEDTAVYYCAAVWYWTQDYDYWGQGTQVTVSS | low polyreactivity |
| QVQLVESGGGLVQAGGSLRLSCAASGNIFDEYTMGWYRQAPWKERELVAAINSGGSTDYADSVKGRFTISRDNAKNTVYLQMNSLKPEDTAVYYCARDVWPTKIQQQPGYGRGEYWGQGTQVTVSS | low polyreactivity |
| QVQLVESGGGLVQAGGSLRLSCAASGNIFDLYAMGWYRQAPGKERELVAAITRSSSRTYYADSVKGRFTISRDNAKNTVYLQMNSLKPEDTAVYYCRAKQVNRFDYWGQGTQVTVSS | high polyreactivity |
| QVQLVESGGGLVQAGGSLRLSCAASGNIFESYGMGWYRQAPGKERELVATINTSSGSTYYADSVKGRFTISRDNAKNTVYLQMNILKPEDTAVYYCAAEWYPYPWGYGYWGQGTQVTVSS | low polyreactivity |
| QVQLVESGGGLVQAGGSLRLSCAASGNIFESYGMGWYRQAPGKERELVATINTSSGSTYYADSVKGRFTISRDNAKNTVYLQMNSLKPEDTAVYYCAARFDSFWVEYDYWGQGTQVTVSS | low polyreactivity |
| QVQLVESGGGLVQAGGSLRLSCAASGNIFESYGMGWYRQAPGKERELVATINTSSGSTYYADSVKGRFTISRDNAKNTVYLQMNSLKPEDTAVYYCAVEGDYWYVSMYYWGQGTQVTVSS | low polyreactivity |
| QVQLVESGGGLVQAGGSLRLSCAASGNIFFRNARGWYRQAPGKERELVAAITWSGGSTYYADSVKGRFTISRDNAKNTVFLQMNSLKPEDTAVYYCAADAGQYFTYSGDDNLDYWGQGTQVTVSS | low polyreactivity |
| QVQLVESGGGLVQAGGSLRLSCAASGNIFFSNAMGWYRQAPGKERELGASISQSGGSTYYADAVKGRFTISRDNAKNTVYLQMNSLKPEDTAVYYCAATQVRRGPAWGRDYWGQGTQETVSS | low polyreactivity |

| Sequence | polyreactivity (PSR sort gate) |
| --- | --- |
| QVQLVESGGGLVQAGGSLRLSCAASGNIFFTYAMGWYIQEPGKERELVAAITSGGRTYYADSVKGRFTISRDNAKNTLHLQMNSLKPEDTAVYYCAAYYKYLGYGYWGQGTQVTVSS | high polyreactivity |
| QVQLVESGGGLVQAGGSLRLSCAASGNIFGKNVMGWYRQAPGKEREFVAAITSRGGRTNYADSVKGRFTISRDNAKNTVYLQMNSLKPEDTAVYYCAKDKNYPSGYGYWGQGTQVTVSS | high polyreactivity |
| QVQLVESGGGLVQAGGSLRLSCAASGNIFGLNAMGWYTQAPGKEREFVAAITKTGGSTYYADSVKGRFTISRDNAKNTVYLQMNSLKPEDTAVYYCAARGLPRGYPYEYGYWGQVTQVTVSS | high polyreactivity |
| QVQLVESGGGLVQAGGSLRLSCAASGNIFGQYAMGWYRQAPGKEREFVAAITWSGGSTYYADSVKGRFTISRDNAKNTVYLQMNSLKPEDTAVYYCAADYGKTHRYDYDYWGQGTQVTVSS | low polyreactivity |
| QVQLVESGGGLVQAGGSLRLSCAASGNIFGTYAMGWSRQAPRKERELVATISNDDRTNYADSVKGRFTISRDNAKNTVYFQMNSLKPADTAVYYCAVEYPSIAYRKSSKTFDYWGQGTQVTVSS | low polyreactivity |
| QVQLVESGGGLVQAGGSLRLSCAASGNIFGVYAMGWYRQAPGKERELVAAIRYSTVSTYYADSVKGRFTISRDKAKNTVYLQMNSLKPQDTAVYNSAAHRYYWSLYGYDYWGHGTQVTVSS | high polyreactivity |
| QVQLVESGGGLVQAGGSLRLSCAASGNIFGVYTMGWYRQAPGKERELVAAISDGGSTYYADSVKVRFTISRDNAKNTVYLQMNSLKPEDTAVYYCAASKIGYWGDYFRYYYWGQGTQVTVSS | low polyreactivity |
| QVQLVESGGGLVQAGGSLRLSCAASGNIFGYYVMGWYRQAPGKERELVAAITWSAGTTNYADSVKGRFTISRDNAKNTVYLQMNSLKPEDTAVYYCAVTWWYQDYDLTWYLYDYWGQGTQVTVSS | low polyreactivity |
| QVQLVESGGGLVQAGGSLRLSCAASGNIFHYYPMGWYRQAPGKERELVATISWRGDGTNYADSVKGRFTISRDNEKNTVYLQMISLKPEDTAVYYCAARGVWPDYDYWGQGTQVTVSS | low polyreactivity |
| QVQLVESGGGLVQAGGSLRLSCAASGNIFKGYAMGWYRQAPGKERALVAAISKSGGSTYDADSVKGRFTISRDNAKNTVYLQMNSLKPDDTAVYYCNARRKYGGGQTINGYDYWGQGTQVTVSS | high polyreactivity |
| QVQLVESGGGLVQAGGSLRLSCAASGNIFKVNTMGWYRQAPGKERELVAAINRSGGRPYYADSVKGSFTISRDNAKNTVYLQMNSLKPEDTAVYYCATRVHKSTHGYDYWGQGTQVTVSS | high polyreactivity |
| QVQLVESGGGLVQAGGSLRLSCAASGNIFLDYAMGWYRQAPGKERELVAANTSRVDDTYYADSVKGRFTISLDNAKNTVYLQMTSLKPEFTAVDYCAADYSVTLLIGGYYWFYAFDYWGQGTQVTVSS | low polyreactivity |
| QVQLVESGGGLVQAGGSLRLSCAASGNIFLYYAMGWYRQAPGKEMELVAAISWSGSSTYYADSVKGRFTISRDNAKNTVYLQMNSLKPEDTAVYYCNKRATRSRRRGYWGQGTQVTVSS | low polyreactivity |
| QVQLVESGGGLVQAGGSLRLSCAASGNIFLYYAMGWYRQAPGKERELDADIDSSGASTYYADSVKGRFTISRDNAKNNVYLQMNSLKPEDTAVYYCAAEFHWWYAGYDYGYWGQGTQVTVSS | low polyreactivity |
| QVQLVESGGGLVQAGGSLRLSCAASGNIFLYYAMGWYRQAPGKERELVADIDSSGASTYYADSVKGRFTISRDNAKNTVYLEMNSLKPEDTAVYYCAAEFHWWYAGYDYGYWGQGTQVTVSS | low polyreactivity |
| QVQLVESGGGLVQAGGSLRLSCAASGNIFLYYAMGWYRQAPGKERELVADIDSSGASTYYADSVKGRFTISRDNAKNTVYLQMNSLKPEDTAVYYCAARGRKNQRRYGYWGQGTQVTVSS | low polyreactivity |
| QVQLVESGGGLVQAGGSLRLSCAASGNIFPAYAMGWYRQAPGKERELVATISRRGGGTYYADSVKGRFTISRDNAKNTVYLQMNSLKPEDTAVYYCNVAGWTSAYDYWGQGTQVTVSS | low polyreactivity |
| QVQLVESGGGLVQAGGSLRLSCAASGNIFRVYDMGWYRQAPGKERELVAVIRWSSGRTYYADSVKGRFTISRDNAKNTVYLQMNSLKPEDTAVYYCATKLWRVPRNSHYDSYEYWGQGTQVTVSS | high polyreactivity |
| QVQLVESGGGLVQAGGSLRLSCAASGNIFRYYAMGWYRQAPGKERELVARISTGSSTYYADSVKGRFTISRDNAKNTVYLQMNSLKPEDTAVYYCAAANYRYRVPWFYYWGQGTQVTVSS | high polyreactivity |
| QVQLVESGGGLVQAGGSLRLSCAASGNIFRYYVMGWYRQAPGKEREFVAAITSSGGSTYYADSVKGRFTISRDNAKNTVYLQMNSLKPEDTAVYYCAKDYWDPGWAEYDYWGQGTQVTVSS | low polyreactivity |
| QVQLVESGGGLVQAGGSLRLSCAASGNIFSYYAMGLYRPAPGKERELVAAIDWNGGTTYYADSVKGRFTISRDNAKNTVYLQMNSLKPEDTAVYYCAAAWYWYWFLFEGAPYDYWGQGTQVTVSS | high polyreactivity |
